This series can be described thus: soluble fraction after stress (log2 fold change); higher = more stays soluble; pooled small domains, quantitative proteomics. The note with it: stress: 75 degC.
For “HMEDETAKVLRLLAENNGYLPYNDKSDPTDIYAFFGMSKKAFKMTTGNLYKQKKIQFTQTGIQLIE”, the “soluble fraction (log2)” value was -1.77.

As for “HMEDEVSSSAAYQALLEKGVSKTLARSWVIDYGEAYVLDKVDLTTSQAARGKIKSSTAGFLKAAIEEDFHN”, the “soluble fraction (log2)” value was -0.0992.

For the sequence “HMEDGEALARAVASLPGKYREVLFLKYSHGYSVDEIALILSMSKENVKKTIQRARKKLEQLLESE”, the “soluble fraction (log2)” value was -1.3.

For the sequence “HMEDGEVTVPDLRGLTIKEAGTILEKLGLHLSPVGTGLAVRQDVAPGSKVARDTTITVEFEPPDIQVLR”, the “soluble fraction (log2)” value amounted to 0.374.

With “HMEDIKHVVANNIKKYRKEERLTLQQLSYLTGVSKTMLNQIETEKSSPSITILWRISSGLKIPLSKLISSP”, the “soluble fraction (log2)” value was -1.58.

Consider “HMEDIPENIRYKFLLKELKENEHLNILDKENIARKLTEIDLPELEKELLENEILNSTIKDYLGIKLV”, for which the “soluble fraction (log2)” value came out at 0.494.

Regarding “HMEDKFEYQGELKSLIEPTSFSELVSALNVRDTLQAIIDFAMREEDTSGYEELKVRQNDYIQEYLNSIGNF”, the “soluble fraction (log2)” value was -0.761.

Turning to “HMEDKFEYQGERKSLIYPTSFSELTEALGVRNMLQSIIDFATRDEDTSGYEEMKERQNEYIQEYL”, the “soluble fraction (log2)” value was -0.0262.

“HMEDKKQVLYELITDKSYRPLRFKELAVLLMVPKALRGELKQTLDELIKEGKITVDSSSRYRAA”: the “soluble fraction (log2)” value is 0.599.

As for “HMEDLDKIISAYLDENPQIVSDYGKGNKKAVNSAIGFVMKSTGGKYSSSDIVDAVRSMIVSISV”, the “soluble fraction (log2)” value was -0.667.

Regarding “HMEDNYYENKINYLFGYLDEADKEISVNSILDFHLAHRTNPEFVFEPKKNTNPLIWKYLSNSNLLY”, the “soluble fraction (log2)” value turned out to be 0.398.

Turning to “HMEDPLGDLIGRIAAATGRPVQDIVAEVHRVVTDHFDGNLRVEAAAVILARKYGVAFEDKLSALQRSV”, the “soluble fraction (log2)” value worked out at 0.0325.

Consider “HMEDSAKRHQIMDGARRVFMDLGFDGASMNEIARAAGVSKGTLYVYFTDKNRLFEAIVEQESL”, for which the “soluble fraction (log2)” value is -1.27.

“HMEDSEYDRLLAEIDEGIRKAIETLEPVELSPQNARVRRIQHQIIEKYQLHSDSVGEEPYRRVRIL”: the “soluble fraction (log2)” value was -0.596.

As for “HMEDSHIYPVSFNGKMRFKLELPVSMNKKEIEEVVLQHEDAQKWLNGQNPKKVIVVPKRIINIV”, the “soluble fraction (log2)” value was 0.0193.

As to “HMEDTVNVPIQINGKLRHVIQVQIGTSEEEIQKIALSEEQVKKFTDGHEILKVMVPKGKLVSIVI”, the “soluble fraction (log2)” value was -1.04.

Consider “HMEDVLVTQIIQLKHVDANDMKTLFTPLLSRGSSQLLAYPQSNVLIITDTRSNIKKITEILDIIDKS”, for which the “soluble fraction (log2)” value was -3.02.

Consider “HMEDVRSLTGPEKAAIILLSLGEEHGQGVWRMFDDEEVKEVSQIMANLGTISASVVEKLLVEFVSQMST”, for which the “soluble fraction (log2)” value was -0.96.

With “HMEDYYKILGVQSNSNPDDIKKAYRKLSLKHHPDRGGDASEFKKINEAYQTLGTPEKRKMYDMQQNN”, the “soluble fraction (log2)” value is -0.169.

Turning to “HMEEEPALLRDLLAKTLEFGLIPQLSHHPALADRTQQLASAVRAAGSASALRNAAASLKSLWIDVDQ”, the “soluble fraction (log2)” value is -0.0158.

For the sequence “HMEEFDLNAYITKINSAATLNALKQAYAEANSAALSVKDKDAQRKIIVEKDKRKAELIQETAG”, the “soluble fraction (log2)” value was determined as 0.453.

“HMEEIALTDILNRFLSSLSLEQRKIFMRRYWYLSPIKEIATEYGMSESKIKMSLFRSRNELKKLLEKEGI”: the “soluble fraction (log2)” value was -0.499.

For the sequence “HMEEINTAPVFKNIIEIAEYAKTKFTTVEEIPKMIEFIETANSKLDNPHDEESVNELINALSTNIRKNV”, the “soluble fraction (log2)” value is 0.347.

For the sequence “HMEEITLIAEDEGLRLDTWLTDKLKDYSRSYIQKLMEDELVLVNGKARKANYRIKTGDEIHVSIPEPE”, the “soluble fraction (log2)” value is -0.0663.

As to “HMEELLVAVKADGSIWADGRPITPDGLASFIDSKPADAVLNLAVDKKAPFAAFVKVVDVAKEKKSGRFVIR”, the “soluble fraction (log2)” value was -0.41.

For “HMEELPIIVAQRFLNIFRQLHIFSDERREAFNKMLLELPPEVKSIFQSLPGGTPLQEYMEDLEQKSK”, the “soluble fraction (log2)” value was -0.721.

For “HMEELTPLQKYVFDYESDISDEVDMRAIKGLENANDVYDYYANVRGWEGDPDLEDDLDNIYRQVKARFA”, the “soluble fraction (log2)” value was determined as 0.0255.

Consider “HMEEMTIRQKRTMIFFIEATKHILQEDGYDHLTIREIAQRAGYNAATLYHYFRDLDELIIYGSVG”, for which the “soluble fraction (log2)” value is -0.439.

Turning to “HMEEPEELYRVKILIYNLLVRNGPGILYTRLRRADYPGEYGIYEEKNGYGKISATLSEWISLNTEYVQRLD”, the “soluble fraction (log2)” value is -3.72.

For the sequence “HMEEVYVPDIRDKSISDAKKILSQMGLKYRIEGEGYDDSTVIKDQTPKPGALLAKDSVVIAYINE”, the “soluble fraction (log2)” value came to 0.0833.

Turning to “HMEEYLENLTQSKLLHMLDQLSPAYKTVFTLFVLDELSHEEISKMLNISIGTSKSNLFRARKVMRVLMESE”, the “soluble fraction (log2)” value was -0.273.

Consider “HMEFDIDAAIHAALEPQAVMRAWFGHEGREYPEDFGVVFFRGWESFTHQEKVEAVRDAKKVLDRAVR”, for which the “soluble fraction (log2)” value was -1.18.

On to “HMEFDSLINYEVKKKETLFSISKKFKIEINDLLSFNTELKNNKLKKNSIIIIPLKKKIVESQNFEKQKIID”, for which the “soluble fraction (log2)” value is -1.49.

As to “HMEFENIEQRKQYWSDLYRELKAGQDAYAKELKKGTEGYTQDELDILKEFTDEAKKQMEAAGVEATDEFAS”, the “soluble fraction (log2)” value was -0.0427.

On to “HMEFLLAIQPFVLLTDHANLTFLREQTDSMMKRIQINISGFEIEFRYVPGLTNILPDKMSRV”, for which the “soluble fraction (log2)” value is 0.146.

As for “HMEFQEQLYRLRKQAGLSQEELSHIIGVSRQAVQKWEAGSARPDLDNLIALASHFKLSLDQLVGLT”, the “soluble fraction (log2)” value was -1.01.

Take “HMEFQSIGGKIRIGREREHLTQAELAQKLSVTRQAVSNWERDKTLPDIYMIREIAEIFGLTLDEFMEGAKK”: the “soluble fraction (log2)” value is -1.02.

Consider “HMEGDAFAFTGDIQKDLLSITAVHPMRREAVDALIAKAGASWAIVEKLLAHGELTEAKHDGHLFYLRKF”, for which the “soluble fraction (log2)” value was -1.19.

As to “HMEGIAEILPASVRQKYGLIGLYDALRGLHFPGNMEEIKAARQRLAFEDTLMFSLTLSMMQYS”, the “soluble fraction (log2)” value was -0.146.

With “HMEGIAYDINTAPEHIDLKAEDMMATFNIGKTALWRWVKQKILPPPYEYRSQAAHWTIGQIRDWKTA”, the “soluble fraction (log2)” value is -0.125.

For the sequence “HMEGLDDKTKIILFAGDKKEQEYSLADLKSKLNITENLTESELIKLLEKQGYVLDVNANNEFMFKKD”, the “soluble fraction (log2)” value is -0.012.

In the case of “HMEGNFFADIRQELMRELDQEAEWSDVQILEKIDDLVLLRTRRSSLTVNEKEQLRKELFYSVRK”, the “soluble fraction (log2)” value is -0.345.

Take “HMEGRTVMATTAVNVRSGPGTSYKILGVLYPGHTAQQIGNTRYGWAQVTWKGHTAYIAARYLRDS”: the “soluble fraction (log2)” value is -2.71.

For the sequence “HMEGSLQEDKVKEYQDRFKEELSNDLNTANSITVLYDLIKDDTLNGTTKRYLIEDFDKILSLDLIKE”, the “soluble fraction (log2)” value turned out to be 0.167.

For “HMEGSVTVMVNGESVTMTGKQNYIFVDVFDWYSFDLSAGKGRAIATLVNGKEAEFSQPLANGDNIELYWKE”, the “soluble fraction (log2)” value is -2.15.

With “HMEGTAAAVALKGLMEQSGVDLREVMAAVESRGYYPKGTPFENYDPAFVSGVLVGAWDQVYKMILDQRPIP”, the “soluble fraction (log2)” value is -0.692.

On to “HMEGVSPQTVQEHIRRFIAAEDPASPLSDEALREALGNLGINASRRTVAKYRGEMGIPSSAQRKR”, for which the “soluble fraction (log2)” value is -0.0573.

Take “HMEGVSSESVKEMLKSIIDGEDPHNPVSDQRITDILNSRGINISRRTVAKYRDELGIASSSRRKRY”: the “soluble fraction (log2)” value was found to be 0.298.

Take “HMEGYLYLSESQNELILKNLKTPLKYNLYNASGKLIKKGNIKNTLDISELPKGVYIFTSSDNSFSKKFLKT”: the “soluble fraction (log2)” value is -1.55.

On to “HMEHAETDTRERILVVAERLFRQLGYQKTTVADIAKELRMSPANVYRFFDSKKSIHEGVARTL”, for which the “soluble fraction (log2)” value is -0.896.

On to “HMEHETTQLELNAPGQRLDAALALALPDTSRAQIQQWIKQGLVTDQAGTALLQASLKLKSPLNVVLQRPI”, for which the “soluble fraction (log2)” value was -0.215.

On to “HMEHIDVSGRAFDVSVSRLKRARRLTMRIDTHKQLVKISAPLHVESSTIRAFLARNQNWLEQQVEKR”, for which the “soluble fraction (log2)” value is -0.839.

Turning to “HMEHLTATERHLVAYLEAHLGQVPSLSITKLSQEANVSTASIVRTMKKLGYDGFTAFKHAIKQQLR”, the “soluble fraction (log2)” value was -2.67.

Consider “HMEHTPHGVALLRTLMDQYGLKAADLANELGSKSNVSNILNGRRALTVSHIKMLAERFNLPADAFI”, for which the “soluble fraction (log2)” value was -1.33.

On to “HMEIALNDKQILLFSNKLVHEPSFASKYSKVGESYDDFAIRISENLTIPDKVQEYLPYLEKVGFNI”, for which the “soluble fraction (log2)” value was -0.622.

For “HMEIDDPWLILGINAGSSIEIAQKAWKDLASQNHPDKLIANGVPKELLGMANEKLAIINGAYDKILKAHKI”, the “soluble fraction (log2)” value was -0.295.

Regarding “HMEIETPEIRAIHDLLELLANKAKKPEQEQFVQAHPEVQWAKVEANKNGTFAVGKVKAYLKTLQA”, the “soluble fraction (log2)” value was -0.39.

As to “HMEIGNVIAKLRVSNGLNQREFAKKLEVSNGAVAMWETNKRQPDLEMIKKISNLFDVPTDYILGAGTFQ”, the “soluble fraction (log2)” value was -0.838.

“HMEIIFVEHKVRPGESVWLIARKYKVKKNHILAVNNLSEKSIIRPKQILKIPTSGYDQYKKSVE”: the “soluble fraction (log2)” value was -3.79.

As for “HMEIIMIVITKPSITDERIAEIVAVIERNGGVQAHVSKGTDRTVIGIIGKAEPTLAEHLRQMKGVENVIKI”, the “soluble fraction (log2)” value was -1.33.

Take “HMEIPMRDKLKTYIDYLFAGAPQTAATAETKAEILQNTLDKYDDLIAEGKTPEAAYSLAVSGIGDLGDF”: the “soluble fraction (log2)” value is -0.179.

Regarding “HMEIPTEEILKQKLYYSISEVASWFKVNTSLLRYWENEFDILQPRKTRKGDRLFRVEDIKNLQLIYLL”, the “soluble fraction (log2)” value amounted to 0.26.

Turning to “HMEITGKYKAKEDIKLKVIPLISSLDLQDIKQNTELEVKDTMNNWAYVTVQEKQGWVVLEKIEKVE”, the “soluble fraction (log2)” value is -0.631.

On to “HMEITTLTGVLGAGRLDSALAAALPQYSRARIQALISDAALRINGQVVADAGSKKMSGQTFELNIPAPVP”, for which the “soluble fraction (log2)” value is -0.594.

With “HMEKDEYIFVDIDGAVFNPGVYKLIAGSRVIDAINLAGGLKEKAFTQNLNKARKLVDGEKIYIYLEGDEE”, the “soluble fraction (log2)” value is -0.552.

Turning to “HMEKDRDKRIRKRVLTALKRNDKKMTDKAFALLTSRIRDESILDQEVLKLIGYVGDRTTIDSKDINIVVAE”, the “soluble fraction (log2)” value is -0.392.

Turning to “HMEKEEELNSIRPDLDGNDIMEILGVPAGPKVGKAYNYLLNVRLDEGPLSRAEAISRLEAWWENQ”, the “soluble fraction (log2)” value is -0.168.

Turning to “HMEKELVSDFASRISTARSSKGWNHAELGKRMAETVNVIKSAESGKPPTDSVVKKLERVLGITLMEV”, the “soluble fraction (log2)” value was -0.0517.

Regarding “HMEKEYMKNVVGMEYRQARVLLGDMGLELAFQPVYETSDKYPTDVVVSTEPAADQPLTKGQTVILHIST”, the “soluble fraction (log2)” value was -0.332.

On to “HMEKGNEEALEQAREAILAVQSGEKYVDLDPANAAIRRKQHALAQASDLVSQSYGKDPNRYVRIFR”, for which the “soluble fraction (log2)” value was 0.233.
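Also: 20 min heating vs room temperature control held 20 min.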
